Our source for the other: FcγRIIA fluorescence lifetime tm (donor + acceptor) values is PMC6265255.

The test has as its target human FcγRIIA (R131 variant) expressed on Jurkat cells (UniProt P12318). As to the kind of experiment: FLIM. The note with it: Jurkat cells co-expressing FcγRIIA and Mac-1; donor anti-FcγRIIA IV.3 AF488 + acceptor anti-Mac-1 (CD11b) ICRF44 AF568; n = 3 experiments.
Sequence of UniProt P12318 (P12318 34-217, change not shown): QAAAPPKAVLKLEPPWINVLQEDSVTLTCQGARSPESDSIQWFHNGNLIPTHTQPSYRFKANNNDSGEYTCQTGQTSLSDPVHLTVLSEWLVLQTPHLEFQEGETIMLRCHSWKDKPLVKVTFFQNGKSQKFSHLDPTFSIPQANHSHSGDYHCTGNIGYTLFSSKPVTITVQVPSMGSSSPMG

Turning to “human Mac-1 (CD11b/CD18), wild type, expressed on Jurkat cells (from UniProt P11215;P05107) E253-R261 (… replaced with … of CD11a)”, the other: FcγRIIA fluorescence lifetime tm (donor + acceptor) worked out at 1830 ps.
